In patent US20250382371A1 (NATIONAL INSTITUTES OF BIOMEDICAL INNOVATION HEALTH AND …, published 2025):

Experiments:
[1] = target: T1, cynomolgus monkey FCRL1 (XP_015310712), transiently expressed on 293T cells (cynomolgus monkey); assay: flow cytometry on 293T cells transiently expressing cynomolgus monkey FCRL1
T1 chain: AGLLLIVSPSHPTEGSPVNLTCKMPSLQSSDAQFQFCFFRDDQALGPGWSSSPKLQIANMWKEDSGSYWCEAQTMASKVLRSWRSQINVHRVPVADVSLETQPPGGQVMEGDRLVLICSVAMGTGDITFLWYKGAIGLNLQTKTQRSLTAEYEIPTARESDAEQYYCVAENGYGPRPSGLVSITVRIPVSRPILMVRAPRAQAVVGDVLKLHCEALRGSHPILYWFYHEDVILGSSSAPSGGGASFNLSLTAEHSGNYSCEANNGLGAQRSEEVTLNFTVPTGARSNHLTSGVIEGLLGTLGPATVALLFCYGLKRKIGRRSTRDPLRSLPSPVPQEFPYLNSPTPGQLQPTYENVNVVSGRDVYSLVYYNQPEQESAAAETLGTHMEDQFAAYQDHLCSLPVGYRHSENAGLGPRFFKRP
Experimental: An antigen-specific reactivity of the novel anti-human FCRL1 mouse antibody obtained in Example 4 was evaluated by Flow Cytometry (FCM). FCRL1 antigen-expressing cells were prepared by transiently expressing the recombinant FCRL1 antigen on 293T cells. A codon-optimized cDNA was synthesized based on the amino acid sequence of human FCRL1 (NCBI accession number: NP_443170.1) or cynomolgus monkey FCRL1 (XP_015310712), and a fragment in which the sequence of an internal ribosome entry site (IRES) derived from the encephalomyocarditis virus (EMCV) and the sequence of TagBFP were arranged in tandem was cloned into pcDNA 3.1hygro to construct an expression plasmid vector for human FCRL1 or cynomolgus monkey FCRL1. […]
(§1) Cells that transiently expressed human FCRL1 or cynomolgus monkey FCRL1 were reacted with a 3-fold dilution series of each antibody starting from 100 nM (15 μg/ml) at 12 points. Data obtained by the FCM was analyzed, and a binding amount of each antibody bound to the cell was calculated as a fluorescence amount MFI derived from the PE-labeled secondary antibody. An antibody concentration and the measured MFI were plotted with respect to a logarithm of the antibody concentration, a saturated binding curve of each antibody was obtained, and regression was performed by a 4-parameter logistic model.

[2] = target: T2, human FCRL1 (NCBI accession number: NP_443170.1), transiently expressed on 293T cells (human, UniProt Q96LA6 17-429); assay: flow cytometry on 293T cells transiently expressing human FCRL1; apparent KD from EC50 of a 4-parameter fit
T2 construct: also called Fc receptor-like protein 1; CD307a
T2 sequence: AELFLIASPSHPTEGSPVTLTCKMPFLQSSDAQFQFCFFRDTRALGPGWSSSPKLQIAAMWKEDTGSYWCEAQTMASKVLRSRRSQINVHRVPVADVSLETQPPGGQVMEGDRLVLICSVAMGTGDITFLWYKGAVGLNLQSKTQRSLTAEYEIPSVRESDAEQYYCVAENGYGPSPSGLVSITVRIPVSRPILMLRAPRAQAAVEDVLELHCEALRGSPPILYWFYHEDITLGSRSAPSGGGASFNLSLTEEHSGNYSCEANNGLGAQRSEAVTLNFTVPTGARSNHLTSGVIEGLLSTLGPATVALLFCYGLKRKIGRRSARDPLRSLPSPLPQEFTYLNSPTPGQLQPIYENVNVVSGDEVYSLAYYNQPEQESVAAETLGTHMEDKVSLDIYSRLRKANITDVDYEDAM
Experimental: An antigen-specific reactivity of the novel anti-human FCRL1 mouse antibody obtained in Example 4 was evaluated by Flow Cytometry (FCM). FCRL1 antigen-expressing cells were prepared by transiently expressing the recombinant FCRL1 antigen on 293T cells. A codon-optimized cDNA was synthesized based on the amino acid sequence of human FCRL1 (NCBI accession number: NP_443170.1) or cynomolgus monkey FCRL1 (XP_015310712), and a fragment in which the sequence of an internal ribosome entry site (IRES) derived from the encephalomyocarditis virus (EMCV) and the sequence of TagBFP were arranged in tandem was cloned into pcDNA 3.1hygro to construct an expression plasmid vector for human FCRL1 or cynomolgus monkey FCRL1. The purified expression vector was transfected into 293T cells, cells were collected 2 days after transfection, and binding with each antibody was confirmed by FCM.
As the secondary antibody, when the sample is a mouse antibody, R-Phycoerythrin (PE) F(ab′)₂ Fragment Goat Anti-Mouse IgG (H+L) (Jackson ImmunoResearch) was used, and when the sample is a human antibody or a human chimeric antibody, R-Phycoerythrin (PE) F(ab′)₂ Fragment Goat Anti-Human IgG, Fcγ Fragment Specific (Jackson ImmunoResearch) was used. A solution of each secondary antibody was prepared by diluting the stock solution 200 times with an FCM buffer. After washing once, cells in each well were suspended with 100 μL of FCM buffer, and binding to each antibody was confirmed by flow cytometry (FCM).
as §1

binding result [1]: no binding | Kd [2]: 0.4 nM
B1: anti-human FCRL1 mouse monoclonal antibody DK610 (antibody, V domains shown)
VH: DVLLQESGPGLVKPSQSLSLTCSVAGYSITSDYAWNWLRRFPGNRLEWMGYITYSGSTAYHPSLKGRISFTRDTSQNQVFLQLHSVTTEDSATYYCAQGGTLITTWFLRWGQGTLVTVSA
VL: DIVLTQSPASLAVSLGQRATISCRASKSVSTSDYNYMHWYRQKPGQPPKLFIYLASNLESGVPARFSGSGSGTDFTLNIHPVEEEDAATYYCQQSRELPSTFGGGTKLEIK
